In US5627154A, “Calcium channel blocking polypeptides from Heteropoda venatoria” (Pfizer Inc., priority 1995, dated 1997):
Where no end group is shown, it is not given here.

system: calcium channels; settings: read-out: IC50 values for blocking calcium channels; cerebellar granule cells from 8 day old rats, fura2 fluorescence, 37° C.

Row | Molecule | IC50 [nM]
1 | COc1ccc(CCN(C)CCCC(C#N)(c2ccc(OC)c(OC)c2)C(C)C)cc1OC (stereo not shown) [Verapamil] | 4800

target: calcium channels; settings: not given

Row | Molecule | IC50 for blocking calcium channels (decrease in fura2 fluorescence) [nM]
2 | DCGTIWHYCGTDQSECCEGWKCSRQLCKYVIDW-NH2 (not fully specified (bridges); also: 3 disulfide bonds, pairing not given here) [Heteropoda peptide KJ 5] | < 3000
3 | DDCGTLFSGCDTSKDCCEGYVCHLWCKYK-NH2 (not fully specified (bridges); also: 3 disulfide bonds, pairing not given here) [Heteropoda peptide KJ 1] | < 3000
4 | ADCGWLFHSCESNADCCENWACATTGRFRYLCKYQI-NH2 (not fully specified (bridges); also: 3 disulfide bonds, pairing not given here) [Heteropoda peptide AU 5B] | < 3000
5 | DDDCGWIMDDCTSDSDCCPNWVCSKTGFVKNICKYEM-NH2 (not fully specified (bridges); also: 3 disulfide bonds, pairing not given here) [Heteropoda peptide AU 5A] | < 3000
6 | ECGTLFSGCSTHADCCEGFICKLWCRYERTW-NH2 (disulfide (positions not given here)) [Heteropoda peptide KJ 7] | < 3000
7 | ECGTLFSGCSTHADCCEGFICKLWCRYERTW-NH2 (not fully specified (bridges); also: 3 disulfide bonds, pairing not given here) [Heteropoda peptide AU 5C] | < 3000
8 | DCGTIWHYCGTDQSECCEGWKCSRQLCKYVIDW-NH2 (not fully specified (bridges); also: 3 disulfide bonds, pairing not given here) [Heteropoda peptide AU 3] | < 3000
9 | DDCGKLFSGCDTNADCCEGYVCRLWCKLDW-NH2 (disulfide (positions not given here)) [Heteropoda peptide KJ 6] | < 3000
10 | DDCGGLFSGCDSNADCCEGYVCRLWCKYKL-NH2 (not fully specified (bridges); also: 3 disulfide bonds, pairing not given here) [Heteropoda peptide AU 2] | < 3000
